Source: FireProtDB (doi:10.1074/jbc.273.32.19982)

Settings: pH 7, Thermal, CD, Sodium phosphate 5 mM, NaCl 0.2 M, reversible: yes, whole UniProt chain shown

| Protein | Tm (Geobacillus stearothermophilus) | unfolding enthalpy (van 't Hoff) (Geobacillus stearothermophilus) | Tm (Bacillus subtilis (strain 168)) |
| --- | --- | --- | --- |
| DNA-binding protein HU wild type, P0A3H0 (protein) MNKTELINAVAETSGLSKKDATKAVDAVFDSITEALRKGDKVQLIGFGNFEVRERAARKGRNPQTGEEMEIPASKVPAFKPGKALKDAVK | 63.9 °C | 72.8 kcal/mol |  |
| DNA-binding protein HU 1 wild type, P08821 (protein) MNKTELINAVAEASELSKKDATKAVDSVFDTILDALKNGDKIQLIGFGNFEVRERSARKGRNPQTGEEIEIPASKVPAFKPGKALKDAVAGK |  |  | 48.6 °C |
